Results reported in patent US20210403575A1 (SHANGHAI YICHEN BIOMED, published 2021).

Molecular target: T1, hEGFR-hIGg1Fc (SinoBiological) (human, UniProt P00533 25-645)
T1 construct: Bought reagent; also called human EGFR; human EGFR antigen; not shown: human IgG1 Fc
Assay: ELISA, coated hEGFR-hIgG1Fc

binding result | Binder
binds | aPDL1ScFv-L1-aEGFRL (bispecific antibody, also called aPDL1 scfv-aEGFR fusion) heavy: QVQLQESGPGLVKPSETLSLTCTVSGGSVSSGDYYWTWIRQSPGKGLEWIGHIYYSGNTNYNPSLKSRLTISIDTSKTQFSLKLSSVTAADTAIYYCVRDRVTGAFDIWGQGTMVTVSSASTKGPSVFPLAPSSKSTSGGTAALGCLVKDYFPEPVTVSWNSGALTSGVHTFPAVLQSSGLYSLSSVVTVPSSSLGTQTYICNVNHKPSNTKVDKKVEPKSCDKTHTCPPCPAPPVAGPSVFLFPPKPKDTLMISRTPEVTCVVVDVSHEDPEVKFNWYVDGVEVHNAKTKPREEQYNSTYRVVSVLTVLHQDWLNGKEYKCKVSNKGLPSSIEKTISKAKGQPREPQVYTLPPSRDELTKNQVSLTCLVKGFYPSDIAVEWESNGQPENNYKTTPPVLDSDGSFFLYSKLTVDKSRWQQGNVFSCSVMHEALHNHYTQKSLSLSPGK light: not shown
binds | aPDL1ScFv-L2-aEGFRL (bispecific antibody, also called aPDL1 scfv-aEGFR fusion) heavy: QVQLQESGPGLVKPSETLSLTCTVSGGSVSSGDYYWTWIRQSPGKGLEWIGHIYYSGNTNYNPSLKSRLTISIDTSKTQFSLKLSSVTAADTAIYYCVRDRVTGAFDIWGQGTMVTVSSASTKGPSVFPLAPSSKSTSGGTAALGCLVKDYFPEPVTVSWNSGALTSGVHTFPAVLQSSGLYSLSSVVTVPSSSLGTQTYICNVNHKPSNTKVDKKVEPKSCDKTHTCPPCPAPPVAGPSVFLFPPKPKDTLMISRTPEVTCVVVDVSHEDPEVKFNWYVDGVEVHNAKTKPREEQYNSTYRVVSVLTVLHQDWLNGKEYKCKVSNKGLPSSIEKTISKAKGQPREPQVYTLPPSRDELTKNQVSLTCLVKGFYPSDIAVEWESNGQPENNYKTTPPVLDSDGSFFLYSKLTVDKSRWQQGNVFSCSVMHEALHNHYTQKSLSLSPGK light: not shown
